Test results as given in PMC8115157.

Legend:
Conditions in all cases: remark: other sources report otherwise
[1] = biological target: T1, full-length human calcium-sensing receptor (CaSR) (human), P41180; assay: cryo-EM structure; single-particle cryo-EM of Ca^2+-free CaSR in DDM/CHS, 20 mM HEPES pH 7.5, 150 mM NaCl, 5 mM EGTA, with 10 mM L-Trp (CaSR^Trp); 4.4 Å
T1 chain: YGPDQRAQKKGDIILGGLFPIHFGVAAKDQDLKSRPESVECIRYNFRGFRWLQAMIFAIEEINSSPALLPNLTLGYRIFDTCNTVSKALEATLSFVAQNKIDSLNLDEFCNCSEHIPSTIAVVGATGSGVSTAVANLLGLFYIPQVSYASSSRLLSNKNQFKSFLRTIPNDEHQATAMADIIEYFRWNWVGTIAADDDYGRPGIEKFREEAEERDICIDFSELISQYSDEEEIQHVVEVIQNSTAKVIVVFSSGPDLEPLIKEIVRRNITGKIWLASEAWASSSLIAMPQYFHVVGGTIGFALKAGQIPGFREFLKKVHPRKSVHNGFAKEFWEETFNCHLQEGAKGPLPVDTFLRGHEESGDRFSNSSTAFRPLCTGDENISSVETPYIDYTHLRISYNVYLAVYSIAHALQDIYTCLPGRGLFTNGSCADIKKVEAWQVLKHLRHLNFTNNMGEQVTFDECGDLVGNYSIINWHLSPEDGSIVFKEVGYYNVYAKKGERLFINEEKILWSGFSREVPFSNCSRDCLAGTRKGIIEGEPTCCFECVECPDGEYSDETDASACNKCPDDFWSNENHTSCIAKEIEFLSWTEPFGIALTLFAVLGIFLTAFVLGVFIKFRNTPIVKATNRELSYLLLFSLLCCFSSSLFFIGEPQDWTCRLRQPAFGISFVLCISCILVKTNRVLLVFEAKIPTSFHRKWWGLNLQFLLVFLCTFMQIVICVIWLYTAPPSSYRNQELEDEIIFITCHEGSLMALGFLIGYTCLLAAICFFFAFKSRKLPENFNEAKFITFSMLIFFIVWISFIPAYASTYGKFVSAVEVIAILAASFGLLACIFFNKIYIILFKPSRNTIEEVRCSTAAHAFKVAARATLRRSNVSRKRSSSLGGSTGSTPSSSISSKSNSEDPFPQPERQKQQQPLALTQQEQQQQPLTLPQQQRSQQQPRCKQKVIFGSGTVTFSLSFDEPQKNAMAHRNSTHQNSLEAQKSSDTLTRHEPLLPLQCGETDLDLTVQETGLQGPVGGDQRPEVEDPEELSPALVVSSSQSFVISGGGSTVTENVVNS

[2] = biological target: T1, full-length human calcium-sensing …; assay: cryo-EM structure; single-particle cryo-EM of CaSR in DDM/CHS, 20 mM HEPES pH 7.5, 150 mM NaCl, with 10 mM L-Trp and 10 mM CaCl2 (active state, CaSR^Acc); 3.5 Å
[3] = biological target: T1, full-length human calcium-sensing …; assay: cryo-EM structure; single-particle cryo-EM of CaSR in DDM/CHS, 20 mM HEPES pH 7.5, 150 mM NaCl, 5 mM EDTA (inactive state; three classes Icc 4.5 Å, Ioc 5.7 Å, Ioo 6.8 Å)
[4] = biological target: T1, full-length human calcium-sensing …; assay: cryo-EM structure; single-particle cryo-EM of CaSR in DDM/CHS, 20 mM HEPES pH 7.5, 150 mM NaCl, 20 mM CaCl2 (three classes: closed-closed CaSR^Ca 3.8 Å, open-closed 5.6 Å, open-open 7.3 Å)

Measured: stoichiometry N

B1: full-length human calcium-sensing receptor (CaSR), P41180 20-1078 (receptor)
chain: YGPDQRAQKKGDIILGGLFPIHFGVAAKDQDLKSRPESVECIRYNFRGFRWLQAMIFAIEEINSSPALLPNLTLGYRIFDTCNTVSKALEATLSFVAQNKIDSLNLDEFCNCSEHIPSTIAVVGATGSGVSTAVANLLGLFYIPQVSYASSSRLLSNKNQFKSFLRTIPNDEHQATAMADIIEYFRWNWVGTIAADDDYGRPGIEKFREEAEERDICIDFSELISQYSDEEEIQHVVEVIQNSTAKVIVVFSSGPDLEPLIKEIVRRNITGKIWLASEAWASSSLIAMPQYFHVVGGTIGFALKAGQIPGFREFLKKVHPRKSVHNGFAKEFWEETFNCHLQEGAKGPLPVDTFLRGHEESGDRFSNSSTAFRPLCTGDENISSVETPYIDYTHLRISYNVYLAVYSIAHALQDIYTCLPGRGLFTNGSCADIKKVEAWQVLKHLRHLNFTNNMGEQVTFDECGDLVGNYSIINWHLSPEDGSIVFKEVGYYNVYAKKGERLFINEEKILWSGFSREVPFSNCSRDCLAGTRKGIIEGEPTCCFECVECPDGEYSDETDASACNKCPDDFWSNENHTSCIAKEIEFLSWTEPFGIALTLFAVLGIFLTAFVLGVFIKFRNTPIVKATNRELSYLLLFSLLCCFSSSLFFIGEPQDWTCRLRQPAFGISFVLCISCILVKTNRVLLVFEAKIPTSFHRKWWGLNLQFLLVFLCTFMQIVICVIWLYTAPPSSYRNQELEDEIIFITCHEGSLMALGFLIGYTCLLAAICFFFAFKSRKLPENFNEAKFITFSMLIFFIVWISFIPAYASTYGKFVSAVEVIAILAASFGLLACIFFNKIYIILFKPSRNTIEEVRCSTAAHAFKVAARATLRRSNVSRKRSSSLGGSTGSTPSSSISSKSNSEDPFPQPERQKQQQPLALTQQEQQQQPLTLPQQQRSQQQPRCKQKVIFGSGTVTFSLSFDEPQKNAMAHRNSTHQNSLEAQKSSDTLTRHEPLLPLQCGETDLDLTVQETGLQGPVGGDQRPEVEDPEELSPALVVSSSQSFVISGGGSTVTENVVNS
modifications: here or on the partner: N-linked glycans (N-acetylglucosamine built) at N261, N287, N446, N468, N488 and N541; N-linked glycans (N-acetylglucosamine built) at N261, N287, N446, N468, N488 and N541
2: all assays above
